Measured values as given in US7135457B1, “Random peptides that bind to gastro-intestinal tract (GIT) transport receptors and related methods” (Cytogen Corporation, priority 1997, dated 2006).

What was measured:
hPEPT1 = molecular target: T1, hPEPT1 (Homo sapiens, UniProt P46059); assay: Receptor ELISA of phage on hPEPT1; type: binding; conditions: Table 4; ratio
T1 construct: 391-571; made in house
T1 sequence (P46059 391-571): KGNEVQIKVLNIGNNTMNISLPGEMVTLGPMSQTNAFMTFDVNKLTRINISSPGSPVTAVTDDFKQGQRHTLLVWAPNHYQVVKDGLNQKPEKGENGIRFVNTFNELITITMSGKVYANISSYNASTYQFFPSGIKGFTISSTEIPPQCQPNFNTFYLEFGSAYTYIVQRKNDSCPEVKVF
Description: The plates were blocked for one hour with 0.5% BSA-PBS. After clarification, the amplified phage were diluted 1:100 in 1% BSA plus 0.05% Tween 20 in PBS and added to the plates. Following incubation of the plates on a rotator for 1 to 2 hours, the plates were washed 5 times with 1% BSA plus 0.05% Tween 20 in PBS. […] After the plates were washed 5 times, as described above, TMB substrate was added to the wells. The plates were read at 650 nm absorbance.

BSA = BSA (Bos taurus, UniProt P02769); assay: Phage ELISA on BSA (background control protein); type: binding; conditions: Table 4
Sequence of BSA (P02769 25-607): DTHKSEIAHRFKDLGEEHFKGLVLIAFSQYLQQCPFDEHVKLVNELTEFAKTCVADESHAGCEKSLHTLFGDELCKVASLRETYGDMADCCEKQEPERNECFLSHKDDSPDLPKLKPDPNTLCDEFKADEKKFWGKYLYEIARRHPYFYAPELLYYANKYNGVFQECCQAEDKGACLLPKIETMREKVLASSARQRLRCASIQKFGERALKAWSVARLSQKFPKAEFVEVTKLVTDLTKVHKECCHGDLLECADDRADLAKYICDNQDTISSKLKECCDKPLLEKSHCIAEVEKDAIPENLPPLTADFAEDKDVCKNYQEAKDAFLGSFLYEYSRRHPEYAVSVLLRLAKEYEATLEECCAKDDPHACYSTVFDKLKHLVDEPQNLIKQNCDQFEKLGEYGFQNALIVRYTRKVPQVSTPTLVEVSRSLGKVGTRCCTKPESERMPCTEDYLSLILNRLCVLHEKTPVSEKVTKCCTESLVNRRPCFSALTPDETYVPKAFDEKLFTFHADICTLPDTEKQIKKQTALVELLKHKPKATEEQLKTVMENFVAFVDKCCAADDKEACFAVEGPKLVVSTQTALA
Description: 96 well plates were coated overnight with GIT receptor, BSA and, optionally, IDE (insulin degrading enzyme, an irrelevant His-fusion protein) or hTF. The plates were blocked for one hour with 0.5% BSA-PBS. After clarification, the amplified phage were diluted 1:100 in 1% BSA plus 0.05% Tween 20 in PBS and added to the plates. Following incubation of the plates on a rotator for 1 to 2 hours, the plates were washed 5 times with 1% BSA plus 0.05% Tween 20 in PBS. Dilute anti-M13-HRP conjugate (anti-M13 antibody linked to horse radish peroxidase (HRP)) was added to all the wells and the plate was incubated for one hour on a rotator. After the plates were washed 5 times, as described above, TMB substrate was added to the wells. The plates were read at 650 nm absorbance.

[1] = Description: In particular, phages selected in vitro to each receptor or binding site located in the GIT were amplified in E. coli, PEG-precipitated, resuspended in TBS and the titer of each phage sample was determined by plaquing in E. coli as described above. […] Using the in situ loop model described above, 0.5 ml of preselected phage library solution was injected into the tied-off portion of the duodenum/jejunum. Blood was collected into heparinized tubes from the portal vein at 0, 15, 30, 45 and 60 minutes. A blood sample was taken from the systemic circulation at the end of the experiment. Similarly, the portion of the duodenum/jejunum used for phage injection was taken at the end of the experiment.
Thirty microliters of the collected portal blood (neat and 10^−2, 10^−4, 10^−6 dilutions) was added to 30 μl E. coli K91Kan cells (overnight culture) and incubated at 37° C. for 10 min. Subsequently, 3 ml of top agarose was added and the samples were plated for plaques. One hundred microliters of the collected portal blood was added to 100 μl of E. coli K91Kan. Five milliliters of LB medium was then added and the samples were incubated at 37° C. overnight in a rotating microbial incubator. The E. coli was removed by centrifugation and the amplified phage supernatant samples were either titered directly or were PEG-precipitated, resuspended in TBS and titered. Following titration of the amplified phage, samples containing phage from each set of animals were combined, adjusting the titer of each sample to the same titer, and were plated for plaques on LB agar plates (22 cm^2 square plates). Either 12,000 or 24,000 phage were plated for plaques.
Thirty microliters of the collected systemic blood (neat and 10^−2, 10^−4, 10^−6 dilutions) was added to E. coli K91Kan cells, incubated at 37° C. for 10 min. Three ml of top agarose was then added and the samples were plated for plaques. One hundred microliters of the collected systemic blood was added to 100 μl of E. coli K91Kan, incubated at 37° C. for 10 min. Five milliliters of LB medium was then added and the samples were incubated at 37° C. overnight in a rotating microbial incubator. The E. coli was removed by centrifugation and the amplified phage supernatant samples were either titered directly or were PEG-precipitated, resuspended in TBS and titered. Following titration of the amplified phage, samples containing phage from each set of animals were combined, adjusting the titer of each sample to the same titer, and were plated for plaques on LB agar plates (22 cm^2 square plates). Either 12,000 or 24,000 phage were plated for plaques. The intestinal tissue portion used in each closed loop was excised. […] Alternatively, the tissue (in PBS supplemented with protease inhibitors) was homogenized in an Ultra Thorex homogenizer, washed 3 times in PBS containing protease inhibitors and resuspended in PBS containing protease inhibitors (Int-G samples). In each case, serial dilutions (neat and 10^−2, 10^−4, 10^−6 dilutions) of the tissue homogenate was titered in E. coli.
The phage amplified from the portal blood, systemic blood and intestinal tissue was plated for plaques. […] The filters were air-dried, and the DNA was cross-linked to the filter (UV crosslinking: 2 min, high setting). The filters were incubated in pre-hybridization buffer (6×SSC, 5×Denhardt's solution, 0.1% SDS, 20 μg/ml yeast tRNA) at 40° C.-45° C. for at least 60 min.
Synthetic oligonucleotides, (22-mers), complimentary to regions coding for the receptor or binding sites used to create the preselected phage library, were synthesized (see Table 14 below).
The oligonucleotides (5 pmol) were 5′ end labelled with ^32P-ATP and T4 polynucleotide kinase and approximately 2.5 pmol of labelled oligonucleotide was used in hybridization studies. […] The filters were air-dried and exposed for autoradiography for 15 hours, 24 hours or 72 hours.
Hybridization data for pools from each receptor group of rats was compiled.

[2] = Drug potency, peptide loading and size of coacervated particles; type: physicochemical; conditions: formulation 1 particles (coacervation), blend

With “RGSTGTAGGERSGVLNLHTRDNASGSGFKPWYPSNRGHK [Peptide 5PAX5]” the PEPT1/BSA (hPEPT1) was 4, the BSA (BSA) was 0.036 OD and the “presence in the systemic circulation (in words)” value ([1]; text summary of HPT1 and hPEPT1 pools) was “found in the systemic circulation”. The “transport from the GIT closed loop into the portal circulation (in words)” value ([1]; text summary of hSI, D2H, HPT1, hPEPT1 pools) was “not found in the portal blood”, the “presence in the intestine samples or fractions (in words)” value ([1]; text summary of the four pools) was “not found in the intestine samples” and the “Insulin (insulin potency)” value ([2]; coated with the named peptide) was 52.7 mg/g. For the same sequence, the “Peptide (level of peptide coated onto the particles)” value ([2]; measured by fluorescence) was 2.83 µL/mg.
